Laboratory results published in patent US20240293570A1 (priority 2021, published 2024).

Key:
[1] = test system: breast cancer JIMT-1; assay: In vivo anti-tumor effect, breast cancer JIMT-1 tumor model; set-up: species or system mouse; conditions: JIMT-1 subcutaneous model, FIG. 10
Experimental: (§1) Tumor cells (ovarian cancer SKOV-3, gastric cancer NCI-N87, and breast cancer JIMT-1) were cultured in a medium and maintained in a 37° C. saturated humidity incubator containing 5% CO2, respectively.
(§2) Tumor cells in a logarithmic growth phase were collected and re-suspended in a basic medium, and the concentration of cells was adjusted to 4×10^7/mL. Under sterile conditions, 0.1 mL of cell suspension was inoculated subcutaneously into the right armpit of a mouse at a concentration of 4×10^6 Cells/0.1 mL/mouse.
(§3) When the tumor volume reached around 200 mm^3, animals were randomly grouped according to the tumor volume, where the difference in tumor volume between the groups was less than 10% of the mean. The grouping day was recorded as Day 0, and administration started according to the body weight of the animals. In the administration period, if the body weight of individual animals decreased by more than 15% compared to that on Day 0 (BWL≥15%), the administration was stopped until the body weight of the animals recovered (BWL<15%), and then the administration recovered.
(§4) During the experiment, the body weight of the animals and the tumor volume were measured 2 times a week, and clinical symptoms of the animals were observed and recorded every day.

[2] = Naked antibody content of antibody-drug conjugates by hydrophobic interaction chromatography (HIC); type: physicochemical; conditions: ADC with Her2 antibody
[3] = Polymer (high molecular component) content of antibody-drug conjugates by SE-HPLC; type: physicochemical; conditions: ADC with Her2 antibody
In short: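 SE-HPLC on 7.8×300 mm SEC column with 50 mM phosphate, 300 mM NaCl (pH 6.8) mobile phase at 0.5 mL/min; high-molecular-weight content determined by area normalization.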

[4] = type: physicochemical; conditions: ADC with Her2 antibody, RP-HPLC-MS
In short: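 ADC at 1 mg/ml reduced with 50 mmol/L DTT in Tris pH 8.0 for 30 min at 37 °C, then light and heavy chains separated by RP-HPLC on a PLRP-S column at 70 °C. Deconvoluted masses assigned drug load per peak; weighted average DAR calculated from UV peak area percentages.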

[5] = test system: gastric cancer NCI-N87; assay: In vivo anti-tumor effect, gastric cancer NCI-N87 tumor model; set-up: species or system mouse; conditions: NCI-N87 subcutaneous model, FIG. 10, FIG. 11
Experimental: as §1, §2, §3, §4

Question: With C=C1C[C@@H]2CC[C@@]34C[C@H]5OC6C(O[C@H]7CC[C@H](CC(=O)C[C@@H]8[C@@H](OC)[C@@H](C[C@H](O)CNC(=O)CNC(=O)[C@H](Cc9ccccc9)NC(=O)CNC(=O)CNC(=O)CCCCCN9C(=O)C=CC9=O)O[C@H]8C[C@H]8O[C@@H](CC[C@@H]1O2)C[C@@H](C)C8=C)O[C@@H]7[C@@H]6O3)[C@H]5O4 [Comparative Example 4, reference compound] as the compound, how does the “in vivo anti-tumor effect on breast cancer” value [1] read?
Answer: Its value is “poor anti-tumor effects”.

Question: And the “Naked antibody content (%)” value [2]?
Answer: The value was 8.01%.

Question: And the “Polymer content (%)” value [3]?
Answer: Its value is 10.73%.

Question: What about the DAR [4] of the same compound?
Answer: Its DAR is 3.01.

Question: And the “in vivo anti-tumor effect on gastric cancer” value [5]?
Answer: Its value is “poor anti-tumor effects”.
